Measurements published in patent US20080220446A1, “Method for Detecting and/or Removing Protein and/or Peptide Comprising a Cross-Beta Structure From an Aqueous Solution Comprising a Protein” (priority 2005, published 2008).

Key:
[1] = Stability testing of biopharmaceuticals under denaturing conditions; type: physicochemical; details: after exposure to harsh denaturing conditions (low pH or heat)
Method: For this purpose, 5 mg/mL Glucagon (Glucagen; Novo Nordisk Farma B. V., Alphen aan de Rijn, The Netherlands) was incubated at 37° C. in 0.01 M HCl for 48 hours. One mg/mL Etanercept (Enbrel; Wyeth Pharmaceuticals B. V., Hoofddorp, The Netherlands) in 67 mM sodium phosphate buffer, 100 mM NaCl pH 7.0 was gradually heated from 30° C. to 85° C. over a period of 12 minutes and afterwards cooled to 4° C. for 5 minutes, this treatment was repeated 4 times. Abciximab (Reopro; Centocor B. V., Leiden, The Netherlands) and Infliximab (Remicade; Schering-Plough B. V., Utrecht, The Netherlands) were incubated at 65° C. for 16 and 72 hours, respectively.

[2] = molecular target: T1, BiP (Homo sapiens, UniProt P11021); assay: Affinity determination ELISA, BiP on coated (mis)folded proteins; type: binding; details: coated protein as labelled
T1 construct: made in house; host or cells: HEK293E
T1 sequence (P11021 19-654): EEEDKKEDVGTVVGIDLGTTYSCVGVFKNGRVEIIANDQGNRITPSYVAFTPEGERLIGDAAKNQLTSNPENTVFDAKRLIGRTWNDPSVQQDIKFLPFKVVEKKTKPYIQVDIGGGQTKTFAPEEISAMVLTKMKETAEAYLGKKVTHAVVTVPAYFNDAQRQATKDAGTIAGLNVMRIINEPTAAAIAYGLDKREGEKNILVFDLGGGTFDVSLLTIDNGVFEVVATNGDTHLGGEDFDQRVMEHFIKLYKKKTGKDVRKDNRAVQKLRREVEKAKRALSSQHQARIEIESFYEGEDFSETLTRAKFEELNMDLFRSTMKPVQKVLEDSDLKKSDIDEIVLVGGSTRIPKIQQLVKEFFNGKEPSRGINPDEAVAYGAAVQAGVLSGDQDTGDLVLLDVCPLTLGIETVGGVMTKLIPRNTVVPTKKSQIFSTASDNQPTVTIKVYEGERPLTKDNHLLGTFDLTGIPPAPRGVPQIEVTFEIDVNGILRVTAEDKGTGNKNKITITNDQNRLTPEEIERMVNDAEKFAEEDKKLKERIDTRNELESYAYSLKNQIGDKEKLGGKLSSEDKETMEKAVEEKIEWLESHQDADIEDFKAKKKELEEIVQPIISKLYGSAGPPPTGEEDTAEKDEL
Source text: Synthetic genes of human BiP, human fibronectin finger 4,5 (Fn F4,5) fragment, and human tissue-type plasminogen activator finger EGF (tPA F-EGF) fragment were ordered from Geneart (Regensburg, Germany). These DNA constructs were digested using BamHI and NotI, and ligated into vector pABC674 (ABC-expression facility, Utrecht University, The Netherlands), which contains a carboxy-terminal FLAG-tag—His-tag. HEK293E cells were transiently transfected with these constructs using the polyethylene-imine method, and grown for 5-6 days.
Denatured proteins and their native controls BSA (Sigma, A7906), glycated BSA, Hb (Sigma, H7605), glycated Hb, ovalbumin (Sigma, A6741), heat-denatured misfolded ovalbumin, human γ-globulins (Sigma, G4386), heat-denatured misfolded γ-globulins, alkyl-γ-globulins, lysozyme (ICN Biochemicals, 100831) and alkyl-lysozyme were coated on ELISA plates (Greiner Microlon high-binding, 655092) in 50 mM NaHCO3-buffer pH 9.6. The plates were blocked using Blocking reagent (Roche 1112589). […] Bound protein is detected by the FLAG-tag using 1:3000 anti-FLAG-HRP (Sigma A-8592) in PBS-T, or by 1:1000 Ni-NTA-HRP (Qiagen 34530) in PBS-T. The HRP reaction Is performed using the TMB substrate (Biosource 4501103 or Tebu Bio 101TMB100-500), stopped using 10% H2SO4 and absorbance was measured at 450 nm.

Substance	amyloid-like properties (ThT-fluorescence and tPA activation) [1]	binding of BiP [2]
Abciximab: abciximab, an inhibitor of blood platelet aggregation (ReoPro, Centocor)	amyloid-like properties are adopted	
albumin-AGE: advanced glycation end-product modified bovine serum albumin		high affinity
